Experimental data from paper PMC10620080, “The sex-specific factor SOA controls dosage compensation in Anopheles mosquitoes”.

Target: T1, MBP-SOA(1-331), myb+BTB (Anopheles gambiae, UniProt Q7Q6N8 1-331)
T1 sequence: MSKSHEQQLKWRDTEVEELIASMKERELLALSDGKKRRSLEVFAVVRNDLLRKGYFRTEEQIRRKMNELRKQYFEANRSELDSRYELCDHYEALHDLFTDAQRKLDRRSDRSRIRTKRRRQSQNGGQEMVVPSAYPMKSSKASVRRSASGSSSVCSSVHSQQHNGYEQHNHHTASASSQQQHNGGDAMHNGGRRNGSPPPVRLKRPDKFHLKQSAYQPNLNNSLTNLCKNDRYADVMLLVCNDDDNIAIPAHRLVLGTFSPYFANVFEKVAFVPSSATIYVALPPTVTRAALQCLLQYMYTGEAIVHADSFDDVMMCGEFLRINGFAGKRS
Experiment: fluorescence polarization; FP: 10 mM Na-HEPES pH 7.4, 150 mM NaCl, 1 mM TCEP, 0.1 g/l BSA, 5% glycerol, 0.05% Triton X-100, 5 nM DNA, 20 C; EMSA: 20 mM HEPES-KOH pH 7.5, 100 mM KCl, 0.05% NP-40, room temperature
Settings: protein: recombinant; tags: N-terminal His6-MBP; label: Cy5 on one strand; blunt

B1: CA10 dsDNA 20mer (dsDNA)
DNA 1: CACACACACACACACACACA
DNA 2: TGTGTGTGTGTGTGTGTGTG
- Kd: 40 nM
